Our source for the self-cleavage values is the RNAGym collection of RNA variant scans (doi:10.7554/elife.80360).

Sequences and labels used below:
B1: Hairpin Ribozyme (parent)
chain: GUCCUCUUUCACGUGCGCGUGAAAGAGAGAAGUGAACCAGAGAAACACACGUUGUGGUAUAUUACCUGGUA

This data set covers variants of B1. The data set can be described thus: self-cleavage, relative activity (ratio to wild type); higher = more cleavage; co-transcriptional.
Take GUCCUCUUUCACGUGCGCGUGUAAGAGAGAAGUGAACCAGAGAAAGACACGUUGUGGUAUAUUACCUGGUA [A22U C46G]: the self-cleavage stood at 0.166.

As to GUCCUCUUUCACGUGCGCGUGAAAGAGAGAAGUGAACCGGAGAAACACACGUUUUGGUAUAUUACCUGGUA [A39G G54U], the self-cleavage is 0.163.

Consider GUCCUCUUUCACGUGGGCGUGAAAGAGAGAAGUGAACCAGAGAAACACACGUAGUGGUAUAUUACCUGGUA [C16G U53A], for which the self-cleavage was 0.855.

GUCCUCUUUCACGCGCGCGUGAAAGAGAGAAGUGAACCAGAGAAACACACGUUGUGGUAUAUUGCCUGGUA [U14C A64G]: the self-cleavage worked out at 0.568.

As to GUUCUCUUUCACGUGCGCGUGAAAGAGAGAAGUGAACGAGAGAAACACACGUUGUGGUAUAUUACCUGGUA [C3U C38G], the self-cleavage was 0.201.

Turning to GUCCUCUUUCACGAACGCGUGAAAGAGAGAAGUGAACCAGAGAAACACACGUUGUGGUAUAUUACCUGGUA [U14A G15A], the self-cleavage was 1.

As for GUCCUAUUUCACGUGGGCGUGAAAGAGAGAAGUGAACCAGAGAAACACACGUUGUGGUAUAUUACCUGGUA [C6A C16G], the self-cleavage was 0.351.

In the case of GUCCUCUUUCACGUGCGCGUGAAAGAGAGAAGUGAACCAGAUAAACACACGUUGUGGCAUAUUACCUGGUA [G42U U58C], the self-cleavage amounted to 0.259.

As for GUCCUCUUUCACGUGCGCGUGAAAGAGAGAAGUGAACCAGAGAAACACACGUUCUGGUAUAUUACCUGGUA [G54C], the self-cleavage came out at 0.433.

Take AUCCUCUUUCACGUGCGCGUGAAAGAGAGAAGUAAACCAGAGAAACACACGUUGUGGUAUAUUACCUGGUA [G1A G34A]: the self-cleavage stood at 0.18.

Consider GUCCUCUUUCACGUGCGCGUGAAAGAGAGAAGUGAACCAGAGAAACCCAGGUUGUGGUAUAUUACCUGGUA [A47C C50G], for which the self-cleavage came to 0.0249.

Turning to GUCCUCCUUCACGUGCGCGUGAAAGAGAGAAGUGUACCAGAGAAACACACGUUGUGGUAUAUUACCUGGUA [U7C A35U], the self-cleavage is 0.523.

For the variant GUCCUCUUUCACGUGCGCGUGAAAGAGAGAAGUGAACCAUAGAAACACACGUUGUGCUAUAUUACCUGGUA [G40U G57C], the self-cleavage stood at 0.124.

For GUCCUCUUUCACGUGCGCGUGAAAGAGAGAAGUGAACCAGAGAAACGCACGUUGUGGUAUUUUACCUGGUA [A47G A61U], the self-cleavage stood at 0.195.

Turning to GUCCUCUUUCACGUGCGCGUUAAAGAGAGAAGUGAACCAGAGAAACACACGUUGUGGUAAAUUACCUGGUA [G21U U60A], the self-cleavage was 0.851.

Turning to GUCCUCUUUCACGCGCGCGUGAAAGAGAGAAGUGAACCAGAGAAACACACGUUCUGGUAUAUUACCUGGUA [U14C G54C], the self-cleavage stood at 0.397.

As for GUUCUCUUUCACGUGCGCGUGAAAGAGAGAAGUGAACCAGAGAAACACACGUUGUGGUAUGUUACCUGGUA [C3U A61G], the self-cleavage was found to be 0.117.

Regarding GUCCUCUUUCACGUGCGCGUGAAAGAGAGAAGUGAACCAGAGCAAGACACGUUGUGGUAUAUUACCUGGUA [A43C C46G], the self-cleavage came to 0.245.

Regarding GUCCUCUUUCACGUGCGCGUGAAAGAGAGAAGUAAACGAGAGAAACACACGUUGUGGUAUAUUACCUGGUA [G34A C38G], the self-cleavage stood at 0.195.

Consider GGCCUCUUUCAUGUGCGCGUGAAAGAGAGAAGUGAACCAGAGAAACACACGUUGUGGUAUAUUACCUGGUA [U2G C12U], for which the self-cleavage was determined as 0.321.

Regarding GUCCUCUUUCACGGGCGCGUGAAAGAGAGAAGUGAACCAGAGAAACACACGAUGUGGUAUAUUACCUGGUA [U14G U52A], the self-cleavage was 1.02.

GUCCUCUUUCACGUGCGCGUGAAAGAGAGAAGUGAACCAGGGAAACACACAUUGUGGUAUAUUACCUGGUA [A41G G51A]: the self-cleavage is 1.09.

Take GUCCUCAUUCACGUGCGCGUGAAAGAGAGAAGUGAACCAGAGAAACACACGUUGUGGUAUAUUACCUGGCA [U7A U70C]: the self-cleavage came to 1.04.

For GUCCUCUUUCACGUGCGCGUGAACGAGAGAAGUGAACCAGAUAAACACACGUUGUGGUAUAUUACCUGGUA [A24C G42U], the self-cleavage turned out to be 0.374.

In the case of GUCCUCUUUCACGUGCGCGUAAAAGAGAGAAGUGAACCAGAGAAACACUCGUUGUGGUAUAUUACCUGGUA [G21A A49U], the self-cleavage was found to be 0.234.

Take GUCCUCUUUCACGUGCGCGUGAAAGAAAGAAGUGAACCAGAGGAACACACGUUGUGGUAUAUUACCUGGUA [G27A A43G]: the self-cleavage came to 0.0988.

GUCCUCUUUCACGUGCGCGUGAAAGAGAGAAGUGAGCCAGGGAAACACACGUUGUGGUAUAUUACCUGGUA [A36G A41G]: the self-cleavage turned out to be 0.536.

Take GUCCUCUUUCACGUGCCCGUGAAAGAGAGAAGUGAACCAGAGAAACACACGUUGUGGUACAUUACCUGGUA [G17C U60C]: the self-cleavage turned out to be 1.08.

With GUCCUCUUUCACGUGCGCGUGAAAGAGAGAAGUGAACCAGAGAAACCCACGUUGUGGUAUAAUACCUGGUA [A47C U62A], the self-cleavage was 0.195.

Regarding GUCCUCUUUCACGUGCGCGUGAAAGAGAGAAGUGAACCAGACAAACACACGUUGUGGUAUUUUACCUGGUA [G42C A61U], the self-cleavage came to 0.136.

On to GUCCUCUUUCACGUGCGCGUGAAAGAGAGAAGUGAACCAGAGAAGCACACGUUGUAGUAUAUUACCUGGUA [A45G G56A], for which the self-cleavage was found to be 0.183.

With GUCCUCUUUCAGGUGCGCGUGAAAGAGAGAAGUGAACCUGAGAAACACACGUUGUGGUAUAUUACCUGGUA [C12G A39U], the self-cleavage stood at 0.32.

Turning to GUCCUCUUUCACGUGCGCGUGAAAGAGAGAAGUGAACUAGAGAAACACACGUUCUGGUAUAUUACCUGGUA [C38U G54C], the self-cleavage stood at 0.235.

Take GUCCUCGUUCACGUGCGCGUGAAAGAGAGAAGUGAUCCAGAGAAACACACGUUGUGGUAUAUUACCUGGUA [U7G A36U]: the self-cleavage was determined as 0.507.

GUCCUCUUUCACGUGCGCGUGAAAGAGAGAAGUGAACCCGAGAAACACACGUUAUGGUAUAUUACCUGGUA [A39C G54A]: the self-cleavage was 0.121.

As to GUCCUCUUUCACGUGCGCGUGAAAGAGAGAAGUGAACCAGAGAAACACACGUUGUGGUAUAUUACCCGAUA [U67C G69A], the self-cleavage was 0.178.

Consider GUCCUCUUGCACGUGCGCGAGAAAGAGAGAAGUGAACCAGAGAAACACACGUUGUGGUAUAUUACCUGGUA [U9G U20A], for which the self-cleavage came to 0.531.

As to GUCCUCUUUCACGUGCGCGUGAGAGAGAGAAGUGAACCAGUGAAACACACGUUGUGGUAUAUUACCUGGUA [A23G A41U], the self-cleavage was determined as 1.09.
